The values below are quoted from earlier work in article PMC4404502.

In the series the target is Asp11 (position 11, …). In words: fluorescence. As to conditions: membrane-inserted helix.

One may read the pKa as the pH at which an ionisable group is half protonated. On to KKGLLLLLLLDLWLLLLLLLLLKKA [pL(D11) poly-Leu transmembrane model peptide (synthetic construct)], for which the pKa is reported as 8.7.
